Measurements: the supplement of paper PMC7877785
± gives the uncertainty stated by the source.

Test: self-splicing fitness, log relative to wild type (ln ratio); higher = more splicing; Tetrahymena group I intron in knt gene, E. coli kanamycin selection, DiMSum; sequences stand for … in CUCUCU…GGAGGGAAAAGUUAUCAGGCAUGCACCUGGUAGCUAGUCUUUAAACCAAUAGAUUGCAUCGGUUUAAAAGGCAAGACCGUCAAAUUGCGGGAAAGGGGUCAACAGCCGUUCAGUACCAAGUCUCAGGGGAAACUUUGAGAUGGCCUUGCAAAGGGUAUGGUAAUAAGCUGACGGACAUGGUCCUAACCACGCAGCCAAGUCCUAAGUCAACAGAUCUUCUGUUGAUAUGGAUGCAGUUCACAGACUAAAUGUCGGUCGGGGAAGAUGUAUUCUUCUCAUAAGAUAUAGUCGGACCUCUCCUUAAUGGGAGCUAGCGGAUGAAGUGAUGCAACACUGGAGCCGCUGGGAACUAAUUUGUAUGCGAAAGUAUAUUGAUUAGUUUUGGAGUACUCGUGGUCG
Summary of the method: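 Library with all eight P1ex-region intron nucleotides randomised, intron inside the knt kanamycin-resistance gene on pET-22b(+), in E. coli BL21(DE3). Cells grew overnight at 37°C or 30°C on LB agar with or without 25 μg/mL kanamycin (plus 100 μg/mL carbenicillin, 50 μM IPTG, 0.2% rhamnose), in six replicate transformations. Pooled colonies were amplicon-sequenced on Illumina HiSeq 2500. DiMSum fitness is the error-weighted combination of wild-type-normalised replicate fold changes, kanamycin versus none.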

Sequence | self-splicing fitness (ln) (30 °C) | self-splicing fitness (ln) (37 °C)
GUUUAGCAAUAUUACGGCAU | 0.0778 ± 0.14 | -0.182 ± 0.14
CUGCAGCAAUAUUACGCCUC | -4.25 ± 0.42 | -2.16 ± 0.5
AUUGAGCAAUAUUACGUGGA | -2.87 ± 0.26 | -1.61 ± 0.21
GCUGAGCAAUAUUACGGUUU | -1.86 ± 0.075 | -1.25 ± 0.095
CUAUAGCAAUAUUACGUUGA | -3.67 ± 0.32 | -3.42 ± 0.35
GAGAAGCAAUAUUACGAUUA | -0.739 ± 0.099 | 0.245 ± 0.081
UAUGAGCAAUAUUACGUGUA | -2.13 ± 0.16 | -1.32 ± 0.12
AAAAAGCAAUAUUACGCCAU | -2.87 ± 0.22 | -1.71 ± 0.24
GAGGAGCAAUAUUACGCGGG | -2.11 ± 0.31 | -2.66 ± 0.34
CAUCAGCAAUAUUACGCCAU | -3.98 ± 0.35 | -2.97 ± 0.24
CCAGAGCAAUAUUACGCAUA | -3.74 ± 0.23 | -2.48 ± 0.24
UGAAAGCAAUAUUACGUGAA | -1.3 ± 0.07 | -1.5 ± 0.085
ACACAGCAAUAUUACGAAAG | -2.32 ± 0.074 | -2.06 ± 0.11
AGCUAGCAAUAUUACGUCGC | -3.1 ± 0.18 | -2.77 ± 0.36
UCUAAGCAAUAUUACGAGUA | -2.23 ± 0.15 | -1.02 ± 0.14
AACUAGCAAUAUUACGAGCG | -0.883 ± 0.089 | -0.592 ± 0.098
AUGGAGCAAUAUUACGGCAC | -1.14 ± 0.37 | -0.0162 ± 0.42
AUACAGCAAUAUUACGUACU | -0.171 ± 0.059 | 0.38 ± 0.083
UUAGAGCAAUAUUACGUGAC | -3.13 ± 0.18 | -2.64 ± 0.24
UGAUAGCAAUAUUACGCGGU | -3.34 ± 0.27 | -1.99 ± 0.22
CGGUAGCAAUAUUACGGAUU | -2.63 ± 0.36 | -2.23 ± 0.34
GUCUAGCAAUAUUACGUCUG | -2.49 ± 0.14 | -1.51 ± 0.13
ACUAAGCAAUAUUACGCUAU | -1.88 ± 0.072 | -1.84 ± 0.1
GGCAAGCAAUAUUACGCGCG | -0.499 ± 0.065 | -0.495 ± 0.081
GUUCAGCAAUAUUACGUGGA | -3.5 ± 0.41 | -1.42 ± 0.2

Sequence | self-splicing fitness (ln) (30 °C) | self-splicing fitness (ln) (37 °C)
CGACAGCAAUAUUACGCUCU | -1.69 ± 0.11 | -0.145 ± 0.11
ACUCAGCAAUAUUACGUUAA | -2.35 ± 0.13 | -1.41 ± 0.12
UGCCAGCAAUAUUACGGACU | -0.709 ± 0.075 | 0.139 ± 0.089
CUCUAGCAAUAUUACGCAUG | -4.85 ± 0.41 | -3.07 ± 0.3
UGAUAGCAAUAUUACGUAUC | -2.67 ± 0.48 | –
UUAGAGCAAUAUUACGGCUU | -2.83 ± 0.21 | -1.79 ± 0.22
UUAGAGCAAUAUUACGACUC | -2.73 ± 0.39 | –
GAAUAGCAAUAUUACGUGCG | -1.2 ± 0.074 | -0.181 ± 0.094
GCACAGCAAUAUUACGUGAC | -1.13 ± 0.089 | -1.97 ± 0.1
CCACAGCAAUAUUACGCCCA | -2.81 ± 0.14 | -2.36 ± 0.16
CCAAAGCAAUAUUACGGCAA | -3.15 ± 0.27 | -2.73 ± 0.25
GCAAAGCAAUAUUACGACAA | -1.43 ± 0.1 | -0.838 ± 0.087
CUCUAGCAAUAUUACGCGGG | -3.39 ± 0.18 | -1.41 ± 0.14
AUUAAGCAAUAUUACGCGCG | -0.63 ± 0.13 | -0.752 ± 0.17
UUCGAGCAAUAUUACGUAUC | -3 ± 0.34 | -0.649 ± 0.23
AGCCAGCAAUAUUACGCGAA | -0.797 ± 0.26 | -2.79 ± 0.38
GCAAAGCAAUAUUACGCAAA | -1.95 ± 0.1 | -1.58 ± 0.1
UCACAGCAAUAUUACGAGCU | -3.32 ± 0.18 | -2.37 ± 0.26
CGGCAGCAAUAUUACGCCAG | -1.53 ± 0.21 | –
GGAAAGCAAUAUUACGUUGA | -2.31 ± 0.081 | -1.27 ± 0.084
GUUGAGCAAUAUUACGACUG | -2.97 ± 0.32 | 0.138 ± 0.22
GAAUAGCAAUAUUACGACUC | -0.601 ± 0.13 | -1.34 ± 0.18
UUCUAGCAAUAUUACGAUAU | -2.27 ± 0.34 | -1.77 ± 0.3
CCAUAGCAAUAUUACGAACA | -3.77 ± 0.22 | -2.41 ± 0.25
AGAUAGCAAUAUUACGUUAA | -2.88 ± 0.18 | -2.01 ± 0.18

Sequence | self-splicing fitness (ln) (30 °C) | self-splicing fitness (ln) (37 °C)
GAGAAGCAAUAUUACGGGUG | -1.72 ± 0.15 | -1.88 ± 0.14
UGGGAGCAAUAUUACGGGGG | -2.97 ± 0.25 | -2.17 ± 0.35
GAUAAGCAAUAUUACGUCGA | -1.54 ± 0.14 | -0.37 ± 0.13
ACAAAGCAAUAUUACGCCUA | -1.61 ± 0.13 | -1.32 ± 0.12
ACUUAGCAAUAUUACGACAU | -0.756 ± 0.012 | -0.251 ± 0.032
UUCGAGCAAUAUUACGCUAA | -2.91 ± 0.29 | -1.61 ± 0.17
GGUAAGCAAUAUUACGGCCA | -1.91 ± 0.39 | –
ACUAAGCAAUAUUACGGAAU | -1.97 ± 0.1 | -2.04 ± 0.16
GACGAGCAAUAUUACGGUUA | -1.65 ± 0.12 | -0.972 ± 0.1
GCUCAGCAAUAUUACGCUUC | -1.9 ± 0.077 | -0.102 ± 0.081
CGAAAGCAAUAUUACGUCAG | -1.1 ± 0.08 | 0.335 ± 0.11
GCUAAGCAAUAUUACGCCGA | -2.09 ± 0.33 | -1.28 ± 0.2
UGGGAGCAAUAUUACGUGCA | -1.07 ± 0.093 | -0.293 ± 0.11
CUCUAGCAAUAUUACGACGU | – | -3.03 ± 0.22
CCCUAGCAAUAUUACGCCCC | -3.88 ± 0.37 | -3.05 ± 0.47
CGGCAGCAAUAUUACGGGAU | -3.24 ± 0.18 | -2.38 ± 0.23
UAUCAGCAAUAUUACGCGAA | -0.515 ± 0.12 | -0.291 ± 0.15
AGAUAGCAAUAUUACGACUA | -1.03 ± 0.14 | -0.165 ± 0.13
AGCUAGCAAUAUUACGAGCA | -1.16 ± 0.21 | 0.177 ± 0.17
UACGAGCAAUAUUACGGAGU | – | -2.68 ± 0.23
UCGGAGCAAUAUUACGAGUU | -2.79 ± 0.33 | –
GCGAAGCAAUAUUACGGUAC | -2.89 ± 0.17 | -1.2 ± 0.15
AACCAGCAAUAUUACGGGGA | -2.46 ± 0.097 | -1.09 ± 0.089
GCACAGCAAUAUUACGACCU | -0.6 ± 0.11 | -0.325 ± 0.13
GGUAAGCAAUAUUACGUCCG | -0.859 ± 0.11 | -0.41 ± 0.15

Sequence | self-splicing fitness (ln) (30 °C) | self-splicing fitness (ln) (37 °C)
AACUAGCAAUAUUACGGGCU | -1.29 ± 0.11 | -1.19 ± 0.16
UUCCAGCAAUAUUACGCCAU | -3.3 ± 0.19 | -2.82 ± 0.25
GGACAGCAAUAUUACGAUGC | 0.225 ± 0.075 | 0.446 ± 0.09
CUCGAGCAAUAUUACGCCCG | – | -2.74 ± 0.43
GUAAAGCAAUAUUACGGCGC | 0.572 ± 0.13 | -0.000459 ± 0.14
ACCUAGCAAUAUUACGUAUA | -1.6 ± 0.1 | -1.46 ± 0.12
ACGGAGCAAUAUUACGGCGC | 0.159 ± 0.44 | -0.221 ± 0.45
ACGUAGCAAUAUUACGCUCC | -2.71 ± 0.36 | -0.259 ± 0.22
ACCCAGCAAUAUUACGCCGU | -1.37 ± 0.064 | -0.415 ± 0.081
CAACAGCAAUAUUACGGGCA | -2.61 ± 0.1 | -1.9 ± 0.12
GUUCAGCAAUAUUACGCCAU | -2.66 ± 0.21 | -1.99 ± 0.14
AGUAAGCAAUAUUACGAACC | -1.74 ± 0.21 | 1.04 ± 0.23
AGAAAGCAAUAUUACGCCGG | -1.43 ± 0.25 | -1.62 ± 0.24
CUAAAGCAAUAUUACGUCGU | -4.09 ± 0.2 | -2.88 ± 0.22
CAUGAGCAAUAUUACGUCCU | -4.2 ± 0.32 | -1.88 ± 0.2
CCUGAGCAAUAUUACGCAUU | -4.02 ± 0.25 | -1.86 ± 0.23
AGAGAGCAAUAUUACGCUGG | -3.07 ± 0.27 | -2.4 ± 0.32
UGGGAGCAAUAUUACGACUG | -0.532 ± 0.39 | -1.31 ± 0.47
GUGCAGCAAUAUUACGAACU | -1.16 ± 0.11 | 0.161 ± 0.12
CAGUAGCAAUAUUACGUUUA | -3.19 ± 0.23 | -3.02 ± 0.25
ACGCAGCAAUAUUACGGCGU | -3.68 ± 0.16 | -2.23 ± 0.14
CUUCAGCAAUAUUACGUGCA | -3.53 ± 0.25 | -3.83 ± 0.3
